Measured values as given in patent US20250057968A1, “ANTI-DLL3 ANTIBODY AND PHARMACEUTICAL USE THEREOF, AND ANTIBODY-DRUG CONJUGATE CONTAINING ANTI-DLL3 ANTIBODY” (Jiangsu Hengrui Pharmaceuticals Co., Ltd., priority 2021, published 2025).
Where a chain is given by its changes, count along the chain named. Blank lines part the entries; values can stand above or below the molecule they belong to.

Experiments:
[1] = molecular target: T1, Human DLL3 full-length protein on cells (human, UniProt Q9NYJ7 27-618); experiment: FACS on DLL3/H82 cells
T1 construct: H1184 and DMS53 express DLL3 themselves; The cell line is named under assay; also called H1184 cells; DLL3/H82
T1 sequence: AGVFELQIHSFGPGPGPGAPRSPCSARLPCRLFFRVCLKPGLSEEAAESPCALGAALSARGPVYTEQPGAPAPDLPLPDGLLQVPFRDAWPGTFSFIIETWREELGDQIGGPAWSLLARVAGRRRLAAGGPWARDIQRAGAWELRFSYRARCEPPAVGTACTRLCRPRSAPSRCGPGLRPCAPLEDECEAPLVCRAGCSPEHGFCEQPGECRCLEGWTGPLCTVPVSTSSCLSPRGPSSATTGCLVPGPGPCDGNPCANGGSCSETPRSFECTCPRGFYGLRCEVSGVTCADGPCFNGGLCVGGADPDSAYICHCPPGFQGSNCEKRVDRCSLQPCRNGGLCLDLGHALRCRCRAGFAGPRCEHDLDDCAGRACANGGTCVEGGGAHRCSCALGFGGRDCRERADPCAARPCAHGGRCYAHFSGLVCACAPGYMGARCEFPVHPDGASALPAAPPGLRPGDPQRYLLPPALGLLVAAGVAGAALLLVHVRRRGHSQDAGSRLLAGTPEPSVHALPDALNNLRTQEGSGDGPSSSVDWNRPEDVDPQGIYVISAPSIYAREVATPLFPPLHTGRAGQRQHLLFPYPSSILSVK
Experimental: Cells of the DLL3-expressing small cell lung cancer cell lines H1184 (ATCC, Cat. No. CRL-5858), DLL3/H82, cynoDLL3/CHO-s, and RatDLL3/CHO-s were suspended at 1×10^6/mL in FACS buffer (1% BSA+pH 7.4 PBS), and the cell suspensions were added to a 96-well round-bottom plate (Corning, 3795) at 100 μL/well. The plate was centrifuged at 300 g for 5 min, and the supernatant was removed. Different concentrations of test antibodies were added at 100 μL/well. The plate was incubated in the dark in a refrigerator at 4° C. for 1 h. After 3 washes by centrifugation at 300 g, working concentrations of APC anti-human IgG Fc (BioLegend, 410712) or PE F(ab′)2-goat anti-human IgG (invitrogen, H10104) were added. The plate was incubated in the dark in a refrigerator at 4° C. for 40 min. After 3 washes by centrifugation at 300 g, the geometric mean fluorescence intensity was measured on an Invitrogen flow cytometer, and the EC50 values of the antibodies in binding to DLL3-expressing cells were calculated.

[2] = molecular target: T2, human DLL3 (ACRO, DLL3-H52H4) (human, UniProt Q9NYJ7 27-479); experiment: SPR (Biacore 8K), antibody captured on Protein A chip, 1:1 fit
T2 construct: bought antigen of the Biacore assay; construct not described
T2 sequence (looked up): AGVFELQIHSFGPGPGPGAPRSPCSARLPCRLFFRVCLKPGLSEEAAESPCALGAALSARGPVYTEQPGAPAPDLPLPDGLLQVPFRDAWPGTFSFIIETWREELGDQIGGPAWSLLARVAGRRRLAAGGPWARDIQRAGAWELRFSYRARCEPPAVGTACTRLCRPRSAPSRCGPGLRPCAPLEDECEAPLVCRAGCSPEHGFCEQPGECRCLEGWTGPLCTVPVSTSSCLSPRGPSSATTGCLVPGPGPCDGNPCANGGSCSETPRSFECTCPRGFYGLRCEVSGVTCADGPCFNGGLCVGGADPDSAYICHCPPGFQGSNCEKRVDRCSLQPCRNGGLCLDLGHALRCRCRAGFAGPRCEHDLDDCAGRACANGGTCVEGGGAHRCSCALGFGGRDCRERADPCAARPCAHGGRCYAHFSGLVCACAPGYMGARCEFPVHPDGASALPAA
Source text: (§1) Test antibodies were affinity-captured with a Protein A biosensor chip (Cat. #29127556, Cytiva) for 18 seconds, and then the antigens human DLL3 (ACRO, DLL3-H52H4), cynomolgus monkey DLL3 (KACTUS, DLL-RM103), and mouse DLL3 (KACTUS, DLL-MM103) were allowed to flow over the surface of the chip for 180 seconds, followed by 600 seconds of dissociation. Reaction signals were detected in real time using a Biacore 8K (Cytiva) instrument to obtain association and dissociation curves. After the dissociation in each experimental cycle, the biosensor chip was washed and regenerated with a 10 mM glycine-hydrochloric acid solution (pH 1.5) (Cat. #BR-1003-54, Cytiva). A 1:1 model was fit to the data. The results are shown in Table 12-1, Table 12-2, and Table 12-3.

human DLL3 = molecular target: T3, human DLL3 (Homo sapiens, UniProt Q9NYJ7); experiment: Biacore antibody affinity assay, human DLL3; type: binding
T3 construct: purchased ACRO DLL3-H52H4
T3 sequence (Q9NYJ7 27-492 limits assumed): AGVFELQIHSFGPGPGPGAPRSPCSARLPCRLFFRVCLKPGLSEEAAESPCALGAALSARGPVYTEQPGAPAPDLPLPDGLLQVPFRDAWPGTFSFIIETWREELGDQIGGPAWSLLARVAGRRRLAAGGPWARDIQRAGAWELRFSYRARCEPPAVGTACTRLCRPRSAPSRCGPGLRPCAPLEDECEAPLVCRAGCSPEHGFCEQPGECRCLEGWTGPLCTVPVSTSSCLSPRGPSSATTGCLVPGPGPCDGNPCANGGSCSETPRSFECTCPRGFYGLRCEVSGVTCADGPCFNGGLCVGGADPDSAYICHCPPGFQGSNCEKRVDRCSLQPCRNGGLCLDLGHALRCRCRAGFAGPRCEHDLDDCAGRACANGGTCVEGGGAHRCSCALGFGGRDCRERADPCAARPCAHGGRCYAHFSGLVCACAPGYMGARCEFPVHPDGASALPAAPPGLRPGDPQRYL
Source text: as §1

- EC50 [1]: 300 pM
- Emax [1]: 14800
- Kd [2]: 467 pM
- koff [2]: 0.000365 s⁻¹
- kon [2]: 781000 M⁻¹ s⁻¹
B1: hAb100L1H2 (antibody, human IgG1, kappa, V domains shown)
VH: EVQLVESGGGLVKPGGSLRLSCAASGFTFSDSGMHWIRQAPGKGLEWVAYISSGSSTIHYADTVKGRFTISRDNAKNSLYLQMNSLRAEDTAVYYCASPLYYYGRSYNAVAYWGQGTTVTVSS
VL: DIQMTQSPSSLSASVGDRVTITCHASQNINVWLSWYQQKPGKVPKLLIYKASDLHTGVPSRFSGSGSGTDFTLTISSLQPEDVATYYCQQGQSYPLTFGGGTKVEIKR

- EC50 [1]: 250 pM
- Emax [1]: 13500
- Kd [2]: 528 pM
- koff [2]: 0.000546 s⁻¹
- kon [2]: 1.03e+06 M⁻¹ s⁻¹
B2: M100CHI (antibody, human IgG1, kappa, V domains shown)
VH: B1 VH with R19K, G42E, S78T, Y80F, N84T, A88S, V93M, T118S
VL: B1 VL with T5N, V15L, R18T, V19I, K42N, V43I, D70G, V83I, V104L
notes: murine variable regions on human IgG1 / kappa constant regions; also called chimeric antibody of mAb100

- EC50 [1]: 160 pM
- Emax [1]: 14800
- Kd [2]: 437 pM
- koff [2]: 0.00037 s⁻¹
- kon [2]: 848000 M⁻¹ s⁻¹
B3: hAb100L2H2 (antibody, human IgG1, kappa, V domains shown)
VH: B1 VH
VL: B1 VL with V43I

- EC50 [1]: 320 pM
- Emax [1]: 13200
- Kd [2]: 1000 pM
- koff [2]: 0.000655 s⁻¹
- kon [2]: 652000 M⁻¹ s⁻¹
B4: hAb100L2H4 (antibody, human IgG1, kappa, V domains shown)
VH: B1 VH with A109G
VL: B1 VL with V43I

- EC50 [1]: 300 pM
- Emax [1]: 14800
- Kd [2]: 664 pM
- koff [2]: 0.000268 s⁻¹
- kon [2]: 404000 M⁻¹ s⁻¹
B5: hAb100L2H3 (antibody, human IgG1, kappa, V domains shown)
VH: B1 VH with Y102H
VL: B1 VL with V43I

- EC50 [1]: 220 pM
- Emax [1]: 14900
- Kd [2]: 729 pM
- koff [2]: 0.000254 s⁻¹
- kon [2]: 348000 M⁻¹ s⁻¹
B6: hAb100L1H4 (antibody, human IgG1, kappa, V domains shown)
VH: B1 VH with A109G
VL: B1 VL

- EC50 [1]: 250 pM
- Emax [1]: 14900
- Kd [2]: 424 pM
- koff [2]: 0.000352 s⁻¹
- kon [2]: 832000 M⁻¹ s⁻¹
B7: hAb100L1H3 (antibody, human IgG1, kappa, V domains shown)
VH: B1 VH with Y102H
VL: B1 VL

- EC50 [1]: 290 pM
- Emax [1]: 14400
- Kd [2]: 1100 pM
- koff [2]: 0.000629 s⁻¹
- kon [2]: 572000 M⁻¹ s⁻¹
B8: hAb100L2H1 (antibody, human IgG1, kappa, V domains shown)
VH: B1 VH with A49S
VL: B1 VL with V43I

- ka (human DLL3): 716000 M⁻¹ s⁻¹
- kd (human DLL3): 0.00114 s⁻¹
B9: hAb6L3H2: humanized antibody of mAb6: hAb6VH2 (SEQ ID NO: 33) + hAb6VL3 (SEQ ID NO: 47), constant regions SEQ ID NO: 28/29 (antibody, V domains shown)
VH: EVQLVQSGAEVKKPGASVKVSCKASGYTFTDYYMNWVRQAPGQRLEWMGIINPYSGVTIYNHKFKGRVTLTVDKSANTAYMELSSLRSEDTAVYYCARQDSLLDYAMDYWGQGTTVTVSS
VL: DIQMTQSPSSLSASVGDRVTITCHASQGISGNMGWLQQKPGKSFKGLIYHGANLEDGVPSRFSGSGSGADYTLTISSLQPEDFATYYCVQYAQFPYTFGGGTKVEIK
modifications: constant regions SEQ ID 28/29; hAb6 VH2; hAb6 VL3

- ka (human DLL3): 2.14e+06 M⁻¹ s⁻¹
- kd (human DLL3): 0.000672 s⁻¹
B10: hAb6L4H11: humanized antibody of mAb6: hAb6VH11 (SEQ ID NO: 42) + hAb6VL4 (SEQ ID NO: 48), constant regions SEQ ID NO: 28/29 (antibody, V domains shown)
VH: EVQLVQSGSELKKPGASVKVSCKASGYTFTDYYMNWVKQAPGQGLEWMGIINPYSGVTIYNHKFKGRFVLSVDKSSNTAYLQISSLKAEDTAVYYCARQDSLLDYAMDYWGQGTTVTVSS
VL: B9 VL with S43A, F44P, T85D
modifications: constant regions SEQ ID 28/29; hAb6VH11; hAb6 VL4

- ka (human DLL3): 2.16e+06 M⁻¹ s⁻¹
- kd (human DLL3): 0.000695 s⁻¹
B11: hAb6L4H13: humanized antibody of mAb6: hAb6VH13 (SEQ ID NO: 44) + hAb6VL4 (SEQ ID NO: 48), constant regions SEQ ID NO: 28/29 (antibody, V domains shown)
VH: B10 VH with V69A
VL: B9 VL with S43A, F44P, T85D
modifications: constant regions SEQ ID 28/29; hAb6VH13; hAb6 VL4

- ka (human DLL3): 718000 M⁻¹ s⁻¹
- kd (human DLL3): 0.00135 s⁻¹
B12: hAb6L3H3: humanized antibody of mAb6: hAb6VH3 (SEQ ID NO: 34) + hAb6VL3 (SEQ ID NO: 47), constant regions SEQ ID NO: 28/29 (antibody, V domains shown)
VH: B9 VH with M48I, V68A
VL: B9 VL
modifications: constant regions SEQ ID 28/29; hAb6 VH3; hAb6 VL3

- ka (human DLL3): 743000 M⁻¹ s⁻¹
- kd (human DLL3): 0.00108 s⁻¹
B13: hAb6L4H4: humanized antibody of mAb6: hAb6VH4 (SEQ ID NO: 35) + hAb6VL4 (SEQ ID NO: 48), constant regions SEQ ID NO: 28/29 (antibody, V domains shown)
VH: B9 VH with Q43K
VL: B9 VL with S43A, F44P, T85D
modifications: constant regions SEQ ID 28/29; hAb6 VH4; hAb6 VL4

- ka (human DLL3): 1.91e+06 M⁻¹ s⁻¹
- kd (human DLL3): 0.000811 s⁻¹
B14: hAb6L4H6: humanized antibody of mAb6: hAb6VH6 (SEQ ID NO: 37) + hAb6VL4 (SEQ ID NO: 48), constant regions SEQ ID NO: 28/29 (antibody, V domains shown)
VH: B10 VH with K38R
VL: B9 VL with S43A, F44P, T85D
modifications: constant regions SEQ ID 28/29; hAb6 VH6; hAb6 VL4
